# Data as given in article PMC3744803, “A continuous fluorescence assay for the characterization of Nudix hydrolases” (Analytical Biochemistry, 2013).
# B1: MutT (Escherichia coli K-12) (protein)
# chain: MKKLQIAVGIIRNENNEIFITRRAADAHMANKLEFPGGKIEMGETPEQAVVRELQEEVGITPQHFSLFEKLEYEFPDRHITLWFWLVERWEGEPWGKEGQPGEWMSLVGLNADDFPPANEPVIAKLKRL
# B2: DR_1025 (Deinococcus radiodurans R1 = ATCC 13939 = DSM 20539) (protein)
# chain: MEHDERTHVPVELRAAGVVLLNERGDILLVQEKGIPGHPEKAGLWHIPSGAVEDGENPQDAAVREACEETGLRVRPVKFLGAYLGRFPDGVLILRHVWLAEPEPGQTLAPAFTDEIAEASFVSREDFAQLYAAGQIRMYQTKLFYADALREKGFPALPV
# B3: NudD (Escherichia coli K-12) (protein)
# chain: MFLRQEDFATVVRSTPLVSLDFIVENSRGEFLLGKRTNRPAQGYWFVPGGRVQKDETLEAAFERLTMAELGLRLPITAGQFYGVWQHFYDDNFSGTDFTTHYVVLGFRFRVSEEELLLPDEQHDDYRWLTSDALLASDNVHANSRAYFLAEKRTGVPGL
# B4: MM_0920 (Methanosarcina mazei Go1) (protein)
# chain: MNLEKPYIISVYALIRNEKGEFLLLRRSENSRTNAGKWDLPGGKVNPDESLKEGVAREVWEETGITMVPGDIAGQVNFELTEKKVIAIVFDGGYVVADVKLSYEHIEYSWVSLEKILGMETLPAYFRDFFERFDRENKKPSKLFI
# Columns and labels:
# [1] = substrate: Nc1nc2c([nH]c(=O)n2[C@@H]2O[C@H](CO[P@@](=O)(O)O[P@@](=O)(O)OP(=O)(O)O)[C@@H](O)[C@H]2O)c(=O)[nH]1; experiment: continuous fluorescence Pi-sensor (PBP-MDCC) assay; format: biochemical, Escherichia coli; details: pH 7.6, 37 °C, 10 mM Tris-HCl, 1 mM MgCl2, PPase coupling
# Excerpt: (§1) continuous fluorescence Pi-sensor (PBP-MDCC) assay on MutT
# [2] = substrate: Nc1nc2c([nH]c(=O)n2[C@H]2C[C@H](O)[C@@H](COP(=O)(O)OP(=O)(O)OP(=O)(O)O)O2)c(=O)[nH]1; experiment: continuous fluorescence Pi-sensor (PBP-MDCC) assay; format: biochemical, Escherichia coli; details: pH 7.6, 37 °C, 10 mM Tris-HCl, 1 mM MgCl2, PPase coupling, alpha-beta cleavage
# Excerpt: as §1
# [3] = substrate: Nc1nc2c([nH]c(=O)n2[C@@H]2O[C@H](CO[P@@](=O)(O)O[P@@](=O)(O)OP(=O)(O)O)[C@@H](O)[C@H]2O)c(=O)[nH]1; experiment: continuous fluorescence Pi-sensor (PBP-MDCC) assay; format: biochemical, Deinococcus radiodurans; details: pH 7.6, 37 °C, 10 mM Tris-HCl, 1 mM MgCl2, no coupling phosphatase
# Excerpt: (§2) continuous fluorescence Pi-sensor (PBP-MDCC) assay on DR_1025
# [4] = substrate: Nc1nc2c([nH]c(=O)n2[C@H]2C[C@H](O)[C@@H](COP(=O)(O)OP(=O)(O)OP(=O)(O)O)O2)c(=O)[nH]1; experiment: continuous fluorescence Pi-sensor (PBP-MDCC) assay; format: biochemical, Deinococcus radiodurans; details: pH 7.6, 37 °C, 10 mM Tris-HCl, 1 mM MgCl2, no coupling phosphatase
# Excerpt: as §2
# [5] = substrate: Nc1nc2c(ncn2[C@@H]2O[C@H](COP(=O)(O)OP(=O)(O)O[C@H]3O[C@H](CO)[C@@H](O)[C@H](O)[C@@H]3O)[C@@H](O)[C@H]2O)c(=O)[nH]1; experiment: discontinuous Fiske-SubbaRow (malachite green phosphate) assay; format: biochemical, Escherichia coli; details: pH 8.5, 37 °C, 1 mM MgCl2, APase coupling
# Excerpt: discontinuous Fiske-SubbaRow (malachite green phosphate) assay on NudD
# [6] = substrate: Nc1ncnc2c1[nH]c(=O)n2[C@H]1C[C@H](O)[C@@H](COP(=O)(O)OP(=O)(O)OP(=O)(O)O)O1; experiment: continuous fluorescence Pi-sensor (PBP-MDCC) assay; format: biochemical, Methanosarcina mazei; details: pH 7.6, 37 °C, 10 mM Tris-HCl, 1 mM MgCl2, PPase coupling
# Excerpt: (§3) continuous fluorescence Pi-sensor (PBP-MDCC) assay on MM_0920
# [7] = substrate: Nc1nc2c([nH]c(=O)n2[C@H]2C[C@H](O)[C@@H](COP(=O)(O)OP(=O)(O)OP(=O)(O)O)O2)c(=O)[nH]1; experiment: continuous fluorescence Pi-sensor (PBP-MDCC) assay; format: biochemical, Methanosarcina mazei; details: pH 7.6, 37 °C, 10 mM Tris-HCl, 1 mM MgCl2, PPase coupling
# Excerpt: as §3
protein,measurement,setting,value
B1,Km,[1],0.9 ± 0.2 µM
same,kcat,[1],11.2 ± 0.9 s⁻¹
same,Km,[2],0.28 ± 0.03 µM
B2,Km,[3],22 ± 5 µM
same,kcat,[3],0.13 ± 0.01 s⁻¹
same,Km,[4],26 ± 1 µM
same,kcat,[4],0.18 ± 0.01 s⁻¹
same,kcat/Km,[4],4400 ± 100 M⁻¹ s⁻¹
B3,Km,[5],220 ± 60 µM
B4,Km,[6],12 ± 3 µM
same,kcat,[6],0.00096 ± 8e-05 s⁻¹
same,kcat/Km,[6],78 ± 12 M⁻¹ s⁻¹
same,Km,[7],13 ± 3 µM
same,kcat,[7],(1.9 ± 0.2) × 10^−3 s^−1
